Data on 5 molecules can be found in patent US20260109782A1 (Chugai, published 2026).

Assay in all cases: cell-based or functional assay
Assay [1] deals with coagulation factor IX / activated coagulation factor IX (human), P00740.
For assay [2], the target named is coagulation factor IX / activated coagulation factor IX (human) (UniProt P00740).
The target in assay [3] is human Factor X (Enzyme Research Laboratories, Inc.) (human, UniProt P00742 41-488).
Chain of human Factor X (Enzyme Research Laboratories, Inc.) (P00742 other isoform, or with tags, fused parts or gaps limits assumed): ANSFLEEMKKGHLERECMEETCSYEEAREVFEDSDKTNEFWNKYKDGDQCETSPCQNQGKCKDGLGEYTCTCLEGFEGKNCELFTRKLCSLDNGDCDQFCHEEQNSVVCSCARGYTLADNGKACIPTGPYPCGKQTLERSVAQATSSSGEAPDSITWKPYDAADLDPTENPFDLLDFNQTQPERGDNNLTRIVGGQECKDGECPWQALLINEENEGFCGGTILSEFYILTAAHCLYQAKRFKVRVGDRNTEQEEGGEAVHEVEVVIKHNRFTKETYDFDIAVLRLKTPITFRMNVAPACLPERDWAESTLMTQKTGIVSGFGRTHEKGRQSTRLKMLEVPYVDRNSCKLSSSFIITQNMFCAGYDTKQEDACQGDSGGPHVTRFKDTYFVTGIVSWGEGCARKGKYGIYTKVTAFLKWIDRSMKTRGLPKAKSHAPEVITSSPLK

Chain of coagulation factor IX / activated coagulation factor IX (human), P00740 (P00740 47-461): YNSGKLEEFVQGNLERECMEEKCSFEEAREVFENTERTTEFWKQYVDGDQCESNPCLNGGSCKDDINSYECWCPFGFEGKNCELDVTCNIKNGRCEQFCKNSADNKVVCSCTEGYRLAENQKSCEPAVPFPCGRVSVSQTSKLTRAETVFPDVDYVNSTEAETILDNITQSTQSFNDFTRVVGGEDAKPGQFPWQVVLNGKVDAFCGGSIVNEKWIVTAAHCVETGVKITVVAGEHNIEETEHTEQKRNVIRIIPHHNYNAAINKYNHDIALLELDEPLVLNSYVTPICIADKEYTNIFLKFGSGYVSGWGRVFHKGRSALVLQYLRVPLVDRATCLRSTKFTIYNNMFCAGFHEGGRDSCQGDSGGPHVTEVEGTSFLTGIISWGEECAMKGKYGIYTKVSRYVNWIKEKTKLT
Chain of coagulation factor IX / activated coagulation factor IX (human) (P00740 47-461): as above

B1: commonly shared L chain antibody of A44 H chain, B26 H chain and hybrid L chain BBA(G) (bispecific antibody, V domains shown)
VH 1: MQVQLQQSGAELAKPGASVKLSCKASGYTFTSSWMHWIKQRPGQGLEWLGYINPSSGYTKYNRKFRDKATLTADKSSSTAYMQLTSLTYEDSAVYYCARGGNGYYFDYWGQGTTLTVSS
VH 2: MQVQLQQSGPELVKPGASVKISCKASGYTFTDNNMDWVKQSHGKGLEWIGDINTKSGGSIYNQKFKGKATLTIDKSSSTAYMELRSLTSEDTAVYYCARRRSYGYYFDYWGQGTTLTVSS
VL: DIVMTQSHKFMSTSVGDRVSITCKASQNVGTAVAWYQQKPGQSPKLLIYSASYRYSGVPDRFTGSRYGTDFTLTISNVQSEDLADYLCQQYSNYITFGGGTKLELKRG
In the case of B1, the reduction of coagulation time against no antibody in assay [1] is over 70 s.

B2: A44/B26 (bispecific antibody, V domains shown)
VH 1: MQVQLQQSGAELAKPGASVKLSCKASGYTFTSSWMHWIKQRPGQGLEWLGYINPSSGYTKYNRKFRDKATLTADKSSSTAYMQLTSLTYEDSAVYYCARGGNGYYFDYWGQGTTLTVSS
VL 1: DIVMTQSHKFMSTSVGDRVSITCKASQDVGTAVAWYQQKPGQSPKLLIYWASTRHTGVPDRFTGSRYGTDFTLTISNVQSEDLADYLCQQYSNYITFGGGTKLELKR
VH 2: MQVQLQQSGPELVKPGASVKISCKASGYTFTDNNMDWVKQSHGKGLEWIGDINTKSGGSIYNQKFKGKATLTIDKSSSTAYMELRSLTSEDTAVYYCARRRSYGYYFDYWGQGTTLTVSS
VL 2: DIVLTQSQKFMSTSVGDRVSITCKASQNVGTAVAWYQQKPGQSPKALIYSASYRYSGVPDRFTGSGSGTDFTLTISNVQSEDLAEYFCQQYNSYPLTFGAGTKLEIKR
Turning to B2, the reduction of coagulation time against no antibody is over 50 s in assay [2] and at least 50 s in assay [3].

B3: commonly shared L chain antibody of A44 H chain, B26 H chain and hybrid L chain ABA(G) (bispecific antibody, V domains shown)
VH 1: MQVQLQQSGAELAKPGASVKLSCKASGYTFTSSWMHWIKQRPGQGLEWLGYINPSSGYTKYNRKFRDKATLTADKSSSTAYMQLTSLTYEDSAVYYCARGGNGYYFDYWGQGTTLTVSS
VH 2: MQVQLQQSGPELVKPGASVKISCKASGYTFTDNNMDWVKQSHGKGLEWIGDINTKSGGSIYNQKFKGKATLTIDKSSSTAYMELRSLTSEDTAVYYCARRRSYGYYFDYWGQGTTLTVSS
VL: DIVMTQSHKFMSTSVGDRVSITCKASQDVGTAVAWYQQKPGQSPKLLIYSASYRYSGVPDRFTGSRYGTDFTLTISNVQSEDLADYLCQQYSNYITFGGGTKLELKRG
In the case of B3, the values for the reduction of coagulation time against no antibody in assay [1] and in assay [3] were over 60 s and at least 60 s, respectively.

B4: chimeric bispecific antibody (A69/B26/BBA) (bispecific antibody, V domains shown)
VH 1: MEVQLQQSGAELVKPGASVKLSCTASGFNIKDYYMHWIKQRPGQGLEWLGYINPSSGYTKYNRKFRDKATLTADKSSSTAYMQLTSLTYEDSAVYYCARGGNGYYLDYWGQGTTLTVSS
VH 2: MQVQLQQSGPELVKPGASVKISCKASGYTFTDNNMDWVKQSHGKGLEWIGDINTKSGGSIYNQKFKGKATLTIDKSSSTAYMELRSLTSEDTAVYYCARRRSYGYYFDYWGQGTTLTVSS
VL: DIVMTQSHKFMSTSVGDRVSITCKASQNVGTAVAWYQQKPGQSPKLLIYSASYRYSGVPDRFTGSRYGTDFTLTISNVQSEDLADYLCQQYSNYITFGGGTKLELKR
For B4, the reduction of coagulation time against no antibody is over 80 s in assay [1] and at least 80 s in assay [3].

B5: bispecific antibody of A69H, B26H and hybrid L chain BBa (bispecific antibody, V domains shown)
VH 1: MEVQLQQSGAELVKPGASVKLSCTASGFNIKDYYMHWIKQRPGQGLEWLGYINPSSGYTKYNRKFRDKATLTADKSSSTAYMQLTSLTYEDSAVYYCARGGNGYYLDYWGQGTTLTVSS
VH 2: MQVQLQQSGPELVKPGASVKISCKASGYTFTDNNMDWVKQSHGKGLEWIGDINTKSGGSIYNQKFKGKATLTIDKSSSTAYMELRSLTSEDTAVYYCARRRSYGYYFDYWGQGTTLTVSS
VL: DIVMTQSHKFMSTSIGDRVSITCKASQNVGTAVAWYQQKPGQSPKLLIYSASYRYSGVPDRFTGSRYGTDFTLTISNVQSEDLADYLCQQYSSYLTFGGGTKLELKR
With B5, the figures for the reduction of coagulation time against no antibody in assay [1] and in assay [3] were over 80 s and at least 80 s, respectively.
